Assay [1] has as its target T1, FcγRIIa R (FcγRIIa, allotype R: Arg at position 131) extracellular domain with C-terminal His tag (human, UniProt P12318 34-217).
T1 construct: extracellular domain; also called FcgRIIa R; 2aR; not shown: His tag at the C terminus
T1 sequence (looked up): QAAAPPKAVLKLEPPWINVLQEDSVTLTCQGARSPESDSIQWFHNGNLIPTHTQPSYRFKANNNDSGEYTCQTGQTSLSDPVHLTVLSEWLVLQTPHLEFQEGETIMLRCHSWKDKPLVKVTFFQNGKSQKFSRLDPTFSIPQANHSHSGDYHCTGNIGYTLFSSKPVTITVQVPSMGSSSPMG
Put plainly: ratio He/Con_2aR : He/Con_2b (FcgRIIa R over FcgRIIb), SPR Biacore. As to the method: The heterodimerized antibodies He Abs in which one of the H chains was introduced with an alteration were assayed for their binding activities to each activating FcγR and inhibitory FcγR according to the method described in Example 4. […] The activating FcγRs in FIGS. 26, 27, 28, and 29 are FcγRIa, FcγRIIa (R), FcγRIIa (H), and FcγRIIIa, respectively.
Analysis of interaction between objective antibody and the FcγR was carried out using Biacore T100 (GE Healthcare). HBS-EP+ (GE Healthcare) was used as the running buffer, and the measurement temperature was set to 25° C. Chips produced by immobilizing the antigen peptide by the amine coupling method to a Series S Sencor Chip CM5 (GE Healthcare), or alternatively, chips produced by allowing preliminarily biotinylated antigen peptides to interact with and immobilize onto a Series S Sensor Chip SA (certified) (GE Healthcare) were used. Antibodies of interest were captured onto an antigen peptide-immobilized chip, and allowed to interact to each FcγR diluted with running buffer. To regenerate and repeatedly use the chip, the antibodies captured on the chip were washed off by reacting 10 mM glycine-HCl, pH 1.5.
Background: In SPR one partner is held on a chip, and binding of the other changes the refractive index at the surface.

Assay [2] concerns the target T1, FcγRIIa R (FcγRIIa, allotype R: Arg at …). As to the kind of experiment: SPR Biacore, antibody captured, FcgR analyte; vs HeCon Ab GpH7-A5/GpH7-B3/GpL16-k0 = 100.
For assay [3], the target named is T2, FcγRIIb extracellular domain with C-terminal His tag (human, UniProt P31994 43-217).
T2 construct: extracellular domain; also called FcgRIIb; 2b; not shown: His tag at the C terminus
T2 sequence (looked up): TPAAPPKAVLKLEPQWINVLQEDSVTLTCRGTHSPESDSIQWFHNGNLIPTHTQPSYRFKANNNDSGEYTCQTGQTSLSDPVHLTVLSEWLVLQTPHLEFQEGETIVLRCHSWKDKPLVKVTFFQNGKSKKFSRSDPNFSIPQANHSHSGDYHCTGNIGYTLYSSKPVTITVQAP
The description is as above.

B1: GpH7-A5/GpH7-B3 variant G237_14T/GpL16-k0 (antibody, human IgG1, kappa)
heavy 1: not shown
heavy 2: not shown
light: DIVMTQSPLSLPVTPGEPASISCQASESLVHSNRNTYLHWYLQKPGQSPQLLIYKVSNRFSGVPDRFSGSGSGTDFTLKISRVEAEDVGVYYCSQNTHVPPTFGQGTKVEIERTVAAPSVFIFPPSDEQLKSGTASVVCLLNNFYPREAKVQWKVDNALQSGNSQESVTEQDSKDSTYSLSSTLTLSKADYEKHKVYACEVTHQGLSSPVTKSFNRGEC
notes: He Ab: alteration in the GpH7-B3 H chain only; also called He Ab
As for B1, the “He_2aR/2b (IIaR/IIb)” value in assay [1] came out at 1.43. For the same molecule, the He/Con_2aR in assay [2] came to 78.6 control = 100. Also, the He/Con_2b in assay [3] amounted to 54.8 control = 100.

B2: GpH7-A5/GpH7-B3 variant L234_12R/GpL16-k0 (antibody, human IgG1, kappa)
heavy 1: not shown
heavy 2: not shown
light: DIVMTQSPLSLPVTPGEPASISCQASESLVHSNRNTYLHWYLQKPGQSPQLLIYKVSNRFSGVPDRFSGSGSGTDFTLKISRVEAEDVGVYYCSQNTHVPPTFGQGTKVEIERTVAAPSVFIFPPSDEQLKSGTASVVCLLNNFYPREAKVQWKVDNALQSGNSQESVTEQDSKDSTYSLSSTLTLSKADYEKHKVYACEVTHQGLSSPVTKSFNRGEC
notes: as for B1
Take B2: in assay [1], the “He_2aR/2b (IIaR/IIb)” value was 1.58. The molecule also gave a He/Con_2aR in assay [2] of 29.9 control = 100. The He/Con_2b in assay [3] was found to be 18.9 control = 100.

B3: GpH7-A5/GpH7-B3 variant L234_01G/GpL16-k0 (antibody, human IgG1, kappa)
heavy 1: not shown
heavy 2: not shown
light: DIVMTQSPLSLPVTPGEPASISCQASESLVHSNRNTYLHWYLQKPGQSPQLLIYKVSNRFSGVPDRFSGSGSGTDFTLKISRVEAEDVGVYYCSQNTHVPPTFGQGTKVEIERTVAAPSVFIFPPSDEQLKSGTASVVCLLNNFYPREAKVQWKVDNALQSGNSQESVTEQDSKDSTYSLSSTLTLSKADYEKHKVYACEVTHQGLSSPVTKSFNRGEC
notes: as for B1
On to B3, for which the “He_2aR/2b (IIaR/IIb)” value in assay [1] turned out to be 1.23. The same molecule gave a He/Con_2aR in assay [2] of 62.3 control = 100. The He/Con_2b in assay [3] was 50.7 control = 100.

B4: GpH7-A5/GpH7-B3 variant L234_19Q/GpL16-k0 (antibody, human IgG1, kappa)
heavy 1: not shown
heavy 2: not shown
light: DIVMTQSPLSLPVTPGEPASISCQASESLVHSNRNTYLHWYLQKPGQSPQLLIYKVSNRFSGVPDRFSGSGSGTDFTLKISRVEAEDVGVYYCSQNTHVPPTFGQGTKVEIERTVAAPSVFIFPPSDEQLKSGTASVVCLLNNFYPREAKVQWKVDNALQSGNSQESVTEQDSKDSTYSLSSTLTLSKADYEKHKVYACEVTHQGLSSPVTKSFNRGEC
notes: as for B1
On to B4, for which, in assay [1], the “He_2aR/2b (IIaR/IIb)” value was 1.24. This molecule displayed a He/Con_2aR in assay [2] of 75.1 control = 100. The same molecule registered a He/Con_2b in assay [3] of 60.3 control = 100.

B5: GpH7-A5/GpH7-B3 variant L235_13S/GpL16-k0 (antibody, human IgG1, kappa)
heavy 1: not shown
heavy 2: not shown
light: DIVMTQSPLSLPVTPGEPASISCQASESLVHSNRNTYLHWYLQKPGQSPQLLIYKVSNRFSGVPDRFSGSGSGTDFTLKISRVEAEDVGVYYCSQNTHVPPTFGQGTKVEIERTVAAPSVFIFPPSDEQLKSGTASVVCLLNNFYPREAKVQWKVDNALQSGNSQESVTEQDSKDSTYSLSSTLTLSKADYEKHKVYACEVTHQGLSSPVTKSFNRGEC
notes: as for B1
With B5, the “He_2aR/2b (IIaR/IIb)” value in assay [1] amounted to 1.36. For the same molecule, the He/Con_2aR in assay [2] is 65.3 control = 100. This molecule also had a He/Con_2b in assay [3] of 48.2 control = 100.

B6: GpH7-A5/GpH7-B3 variant L234_14T/GpL16-k0 (antibody, human IgG1, kappa)
heavy 1: not shown
heavy 2: not shown
light: DIVMTQSPLSLPVTPGEPASISCQASESLVHSNRNTYLHWYLQKPGQSPQLLIYKVSNRFSGVPDRFSGSGSGTDFTLKISRVEAEDVGVYYCSQNTHVPPTFGQGTKVEIERTVAAPSVFIFPPSDEQLKSGTASVVCLLNNFYPREAKVQWKVDNALQSGNSQESVTEQDSKDSTYSLSSTLTLSKADYEKHKVYACEVTHQGLSSPVTKSFNRGEC
notes: as for B1
On to B6, for which the “He_2aR/2b (IIaR/IIb)” value in assay [1] worked out at 1.24. Besides, the He/Con_2aR in assay [2] stood at 77.5 control = 100. In assay [3], this molecule returned a He/Con_2b of 62.5 control = 100.

B7: GpH7-A5/GpH7-B3 variant L234_16H/GpL16-k0 (antibody, human IgG1, kappa)
heavy 1: not shown
heavy 2: not shown
light: DIVMTQSPLSLPVTPGEPASISCQASESLVHSNRNTYLHWYLQKPGQSPQLLIYKVSNRFSGVPDRFSGSGSGTDFTLKISRVEAEDVGVYYCSQNTHVPPTFGQGTKVEIERTVAAPSVFIFPPSDEQLKSGTASVVCLLNNFYPREAKVQWKVDNALQSGNSQESVTEQDSKDSTYSLSSTLTLSKADYEKHKVYACEVTHQGLSSPVTKSFNRGEC
notes: as for B1
Consider B7, for which the “He_2aR/2b (IIaR/IIb)” value in assay [1] is 1.21. In assay [2], the He/Con_2aR came to 71.8 control = 100. In assay [3], the He/Con_2b was found to be 59.4 control = 100.

B8: GpH7-A5/GpH7-B3 variant L234_11K/GpL16-k0 (antibody, human IgG1, kappa)
heavy 1: not shown
heavy 2: not shown
light: DIVMTQSPLSLPVTPGEPASISCQASESLVHSNRNTYLHWYLQKPGQSPQLLIYKVSNRFSGVPDRFSGSGSGTDFTLKISRVEAEDVGVYYCSQNTHVPPTFGQGTKVEIERTVAAPSVFIFPPSDEQLKSGTASVVCLLNNFYPREAKVQWKVDNALQSGNSQESVTEQDSKDSTYSLSSTLTLSKADYEKHKVYACEVTHQGLSSPVTKSFNRGEC
notes: as for B1
Turning to B8, the “He_2aR/2b (IIaR/IIb)” value in assay [1] was 1.66. In assay [2], this molecule returned a He/Con_2aR of 26.8 control = 100. The molecule further showed a He/Con_2b in assay [3] of 16.2 control = 100.

B9: GpH7-A5/GpH7-B3 variant G237_16H/GpL16-k0 (antibody, human IgG1, kappa)
heavy 1: not shown
heavy 2: not shown
light: DIVMTQSPLSLPVTPGEPASISCQASESLVHSNRNTYLHWYLQKPGQSPQLLIYKVSNRFSGVPDRFSGSGSGTDFTLKISRVEAEDVGVYYCSQNTHVPPTFGQGTKVEIERTVAAPSVFIFPPSDEQLKSGTASVVCLLNNFYPREAKVQWKVDNALQSGNSQESVTEQDSKDSTYSLSSTLTLSKADYEKHKVYACEVTHQGLSSPVTKSFNRGEC
notes: as for B1
As to B9, in assay [1], the “He_2aR/2b (IIaR/IIb)” value was determined as 1.35. Moreover, the He/Con_2aR in assay [2] was 74.5 control = 100. The molecule also showed a He/Con_2b in assay [3] of 55.2 control = 100.

B10: GpH7-A5/GpH7-B3 variant L234_05P/GpL16-k0 (antibody, human IgG1, kappa)
heavy 1: not shown
heavy 2: not shown
light: DIVMTQSPLSLPVTPGEPASISCQASESLVHSNRNTYLHWYLQKPGQSPQLLIYKVSNRFSGVPDRFSGSGSGTDFTLKISRVEAEDVGVYYCSQNTHVPPTFGQGTKVEIERTVAAPSVFIFPPSDEQLKSGTASVVCLLNNFYPREAKVQWKVDNALQSGNSQESVTEQDSKDSTYSLSSTLTLSKADYEKHKVYACEVTHQGLSSPVTKSFNRGEC
notes: as for B1
As to B10, the “He_2aR/2b (IIaR/IIb)” value in assay [1] came out at 1.23. In addition, the He/Con_2aR in assay [2] is 89.6 control = 100. Besides, the He/Con_2b in assay [3] is 72.9 control = 100.

B11: GpH7-A5/GpH7-B3 variant L235_01G/GpL16-k0 (antibody, human IgG1, kappa)
heavy 1: not shown
heavy 2: not shown
light: DIVMTQSPLSLPVTPGEPASISCQASESLVHSNRNTYLHWYLQKPGQSPQLLIYKVSNRFSGVPDRFSGSGSGTDFTLKISRVEAEDVGVYYCSQNTHVPPTFGQGTKVEIERTVAAPSVFIFPPSDEQLKSGTASVVCLLNNFYPREAKVQWKVDNALQSGNSQESVTEQDSKDSTYSLSSTLTLSKADYEKHKVYACEVTHQGLSSPVTKSFNRGEC
notes: as for B1
With B11, the “He_2aR/2b (IIaR/IIb)” value in assay [1] was determined as 1.37. The He/Con_2aR in assay [2] came out at 48.5 control = 100. Further, the He/Con_2b in assay [3] came out at 35.4 control = 100.

B12: GpH7-A5/GpH7-B3 variant L235_11K/GpL16-k0 (antibody, human IgG1, kappa)
heavy 1: not shown
heavy 2: not shown
light: DIVMTQSPLSLPVTPGEPASISCQASESLVHSNRNTYLHWYLQKPGQSPQLLIYKVSNRFSGVPDRFSGSGSGTDFTLKISRVEAEDVGVYYCSQNTHVPPTFGQGTKVEIERTVAAPSVFIFPPSDEQLKSGTASVVCLLNNFYPREAKVQWKVDNALQSGNSQESVTEQDSKDSTYSLSSTLTLSKADYEKHKVYACEVTHQGLSSPVTKSFNRGEC
notes: as for B1
B12: the “He_2aR/2b (IIaR/IIb)” value in assay [1] turned out to be 1.72. Besides, the He/Con_2aR in assay [2] was determined as 10.8 control = 100. Besides, the He/Con_2b in assay [3] stood at 6.3 control = 100.

B13: GpH7-A5/GpH7-B3 variant L234_02A/GpL16-k0 (antibody, human IgG1, kappa)
heavy 1: not shown
heavy 2: not shown
light: DIVMTQSPLSLPVTPGEPASISCQASESLVHSNRNTYLHWYLQKPGQSPQLLIYKVSNRFSGVPDRFSGSGSGTDFTLKISRVEAEDVGVYYCSQNTHVPPTFGQGTKVEIERTVAAPSVFIFPPSDEQLKSGTASVVCLLNNFYPREAKVQWKVDNALQSGNSQESVTEQDSKDSTYSLSSTLTLSKADYEKHKVYACEVTHQGLSSPVTKSFNRGEC
notes: as for B1
In the case of B13, in assay [1], the “He_2aR/2b (IIaR/IIb)” value was found to be 1.23. In assay [2], the He/Con_2aR stood at 79.6 control = 100. The same molecule showed a He/Con_2b in assay [3] of 64.9 control = 100.

The record behind these values is patent US20180155451A1 (published 2018).
